The test concerns the target T1, Archaeoglobus fulgidus PCNA (Archaeoglobus fulgidus, UniProt O29912).
T1 sequence: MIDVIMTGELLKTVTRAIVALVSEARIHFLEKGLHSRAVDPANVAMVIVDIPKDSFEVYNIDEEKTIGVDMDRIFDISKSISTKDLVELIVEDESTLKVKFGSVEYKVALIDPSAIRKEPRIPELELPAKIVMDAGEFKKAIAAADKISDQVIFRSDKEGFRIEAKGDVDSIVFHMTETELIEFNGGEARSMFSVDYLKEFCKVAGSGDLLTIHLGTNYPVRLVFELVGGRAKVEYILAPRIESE
Nature of the test: pull-down.

B1: GST-RNase HII hinge deletion mutant (ΔSNLR) (enzyme)
chain: MKAGIDEAGKGCVIGPLVVAGVACSDEDRLRKLGVKDSKKLSQGRREELAEEIRKICRTEVLKVSPENLDERMAAKTINEILKECYAEIILRLKPEIAYVDSPDVIPERLSRELEEITGLRVVAEHKADEKYPLVAAASIIAKVEREREIERLKEKFGDFGSGYASDPRTREVLKEWIASGRIPSCVRMRWKTVQKTLDDF
As to B1, the binding result is given as “binds”.

Source of the values: paper PMC3089482 (Nucleic Acids Research, 2011).
